Measured values taken from patent US8629107B2, “Genes and proteins associated with angiogenesis and uses thereof” (National Jewish Health, priority 2005, dated 2014).

Legend:
[1] = tested on: vessel formation and infiltration into Matrigel plugs; test: Matrigel plug implantation assay; format: in vivo, C57BL/6 mice
Description: The effect of MAGP-2 on vessel formation and infiltration into Matrigel plugs implanted into genetically normal mice was determined as described (Albig et al, 2006). Briefly, phenol red-free Matrigel (BD biosciences, Bedford, Mass.) was mixed with PBS (diluent), bFGF (50 or 300 ng/ml; R&D Systems, Minneapolis, Minn.), or recombinant MAGP-2 (1 μg/ml) together with bFGF (50 ng/ml), and the resulting mixtures were injected twice subcutaneously in the ventral groin area (400 μl/injection) of C57BL/6 mice. The mice were sacrificed 10 days post-implantation and the Matrigel plugs were dissected, fixed overnight in 10% formalin, and sectioned in the National Jewish Histology Laboratory. Afterward, Masson's trichrome staining was performed to visualize infiltrating vessels, which were quantified under a light microscope by determining the average number of vessels present in 5 random fields (200× magnification). Only those fields that contained at least one vessel in the area underlying the skin were tallied. Two mice were used per experimental condition and this experiment was performed three times in its entirety. All animal studies were performed according to protocol procedures approved by the Animal Care and Use Committee at National Jewish Medical and Research Center.
The inventors tested this hypothesis by utilizing the Matrigel plug implantation assay, which monitors the ability of various angiogenic agents to alter vessel formation and infiltration into Matrigel plugs implanted subcutaneously into normal mice. […] MAGP-2 purity was monitored by coomassie staining, and by immunoblotting with anti-FLAG M2 monoclonal antibodies (FIG. 2A; right panel). rMAGP-2 (1 μg/ml) stimulated angiogenic sprouting of quiescent MB114 cell monolayers (FIG. 2A; left panel). […] Afterward, the Matrigel plugs were fixed, sectioned, and stained with Masson's trichrome to visualize infiltrating blood vessels (FIG. 2B; right panels; arrows denote blood vessels), which were quantified by manual counting under a light microscope. […]

MB114 cells [2] = test: cell proliferation, [3H]thymidine incorporation assay; format: cell-based, murine
Description: (§1) The effect putative angiogenic agents had on MB114 cell activities were determined as follows: (i) cell proliferation using a [^3H]thymidine incorporation assay as described (Albig et al, 2006; Albig and Schiemann, 2004; Albig and Schiemann, 2005); (ii) cell invasion through Matrigel matrices using a modified Boyden-chamber assay as described (Albig et al, 2006; Albig and Schiemann, 2004; Albig and Schiemann, 2005); (iii) p38 MAPK phosphorylation using immunoblot analyses as described (Albig et al, 2006; Albig and Schiemann, 2004; Albig and Schiemann, 2005); (iv) angiogenic sprouting in rat tail collagen matrices as described (Albig et al, 2006; Albig and Schiemann, 2004); and (v) Hes1- and SBE-driven luciferase reporter gene assays as described (Albig et al, 2006; Albig and Schiemann, 2004; Albig and Schiemann, 2005).
(§2) FIG. 1A show results from an experiment in which serum-starved MB114 cells, stably expressing either GFP or various putative angiogenic agents, were stimulated in the absence or presence of either bFGF (50 ng/ml) or EGF (10 ng/ml) for 24 h at 37° C. Differences in MB114 cell DNA synthesis was determined by measuring [^3H]thymidine incorporation into cellular DNA. […] In this experiment, invasion of MB114 cells expressing either GFP or various putative angiogenic agents through synthetic basement membranes was determined over 48 h using a modified Boyden-chamber assay.

MB114 cells [3] = test: cell invasion through Matrigel matrices, modified Boyden-chamber assay; format: cell-based, murine; details: MB114 cells stably expressing the transgene vs GFP; 48 h
Description: as §1, §2

MB114 cells [4] = test: angiogenic sprouting in rat tail collagen matrices; format: cell-based, murine; details: MB114 cells stably expressing the transgene vs GFP; 10% FBS, 5 days
Description: as §1
Finally, it was determined whether expression of these putative angiogenic factors could effect the angiogenic sprouting of quiescent MB114 cells monolayers. MB114 cells expressing either GFP or various putative angiogenic agents were grown to confluency, and subsequently were overlaid with rat tail collagen matrices. Angiogenic sprouting by quiescent EC monolayers was stimulated by inclusion of 10% FBS and allowed to proceed for 5 days. The quantity of invading angiogenic sprouts was determined by manual counting under a light microscope.
Based on the findings described in the Examples above, the inventors hypothesized that MAGP-2 promotes angiogenesis by antagonizing Notch1 signaling. To test this hypothesis, it was first determined whether inhibiting Notch signaling in MB114 cells would enhance their angiogenic sprouting. In doing so, MB114 cells were transiently transfected with the Hes1-luciferase reporter gene (and pCMV-β-gal cDNA as control), and subsequently were treated overnight with or without the highly specific gamma-secretase inhibitor, DAPT (Sastre et al, 2001), which inhibits S3-mediated cleavage of Notch1 and, consequently, NICD-mediated induction of Hes1 expression. Afterward, luciferase and β-gal activities were determined. […] In this experiment, quiescent MB114 cell monolayers were overlaid with rat tail collagen matrices, and were induced to form angiogenic sprouts by addition of 10% FBS supplemented with or without DAPT (10 μM). Five days later the number of invading angiogenic spouts were quantified by manual counting on a light microscope. Based on these findings, the inventors conclude that Notch activation functions in mediating angiostasis in MB114 cells. […] Collectively, these findings indicate that Notch1 signaling antagonizes angiogenic sprouting in MB114 cells, and that downregulation of Notch1 signaling components is necessary for angiogenesis activation in MB114 cells.
Having shown that Notch1 signaling mediates angiostasis in MB114 cells, the inventors next asked whether MAGP-2 promotes angiogenesis in MB114 cells via its ability to antagonize Notch signaling. To do so, MAGP-2-expressing MB114 cells were engineered to constitutively express active Notch1 NICD fragment in an attempt to overcome the block of Notch processing mediated by MAGP-2. More particularly, GFP-, MAGP-2-, and MAGP-2/N1ICD-expressing MB114 cells were transiently transfected with pHes1-luciferase and pCMV-β-gal cDNAs. Luciferase and β-gal activities were determined 48 h post-transfection. As the inventors observed previously, MAGP-2 expression reduced Hes1-luciferase activity in MB114 cells (FIG. 5C), a reaction that was bypassed by co-expression of NICD in these cells (FIG. 5C). […] In this experiment, quiescent monolayers of GFP-, MAGP-2-, and MAGP-2/N1ICD-expressing MB114 cells were overlaid with rat tail collagen matrices and incubated in the absence or presence of 10% FBS for 5 days. Afterward, the number of invading angiogenic sprouts were determined by manual counting under a light microscope.

p38 MAPK = p38 MAPK phosphorylation by immunoblot analyses; format: cell-based, murine; details: serum-starved MB114 cells expressing the transgene; bFGF 50 ng/ml or EGF 10 ng/ml, 0-15 min
Description: as §1
The inventors' previous studies have associated stimulation of p38 MAPK activity with angiogenesis of MB114 cells and, conversely, inhibition of p38 MAPK activity with angiostasis of MB114 cells (Albig et al, 2006; Albig and Schiemann, 2004; Albig and Schiemann, 2005). […] The phosphorylation status of p38 MAPK was determined by immunoblotting whole cell lysates with phospho-specific p38 MAPK antibodies (p38-P). Differences in protein loading were monitored by reprobing stripped membranes with anti-p38 MAPK polyclonal antibodies (p38).

MCA102 fibrosarcomas = MCA102 fibrosarcomas produced in mice; format: in vivo

| Molecule | vascularization of implanted Matrigel plugs ([1]; 50 or 300 ng/ml in Matrigel vs diluent, subcutaneous, C57BL/6 mice, day 10) | proliferative response of MB114 cells to bFGF ([3H]thymidine incorporation into cellular DNA) (MB114 cells [2]; serum-starved MB114 cells stably expressing the transgene vs GFP, bFGF 50 ng/ml, 24 h, 37° C.) | MB114 cell invasion through synthetic basement membranes (MB114 cells [3]) | angiogenic sprouting of quiescent MB114 cell monolayers (MB114 cells [4]) | MB114 cell proliferation (MB114 cells [2]; transgene expression in MB114 cells, data not shown) | p38 MAPK phosphorylation (p38 MAPK) | development and infiltration of vessels in Matrigel plugs implanted into mice ([1]; unpublished observations) | growth of MCA102 fibrosarcomas produced in mice (MCA102 fibrosarcomas; unpublished observation) | blood vessel density of MCA102 fibrosarcomas produced in mice (MCA102 fibrosarcomas; unpublished observations) |
| --- | --- | --- | --- | --- | --- | --- | --- | --- | --- |
| bFGF: growth factor (R&D Systems) mixed into Matrigel at 50 or 300 ng/ml [reference compound] | dose-dependently stimulated | – | – | – | – | – | – | – | – |
| SMOC-2: secretory protein stably expressed in MB114 cells by retroviral transduction (protein, UniProt Q8CD91 22-447, looked up) SPARC-related modular …: QKFSALTFLRVDQDKDRDCSLDCPSSPQKPLCASDGRTFLSRCEFQRAKCKDPQLEIAHRGNCKDVSRCVAERKYTQEQARKEFQQVFIPECNDDGTYSQVQCHSYTGYCWCVTPNGRPISGTAVAHKTPRCPGSINEKVPQREGAGKADDAAAPALETQPQGDEEDIASRYPTLWTEQVKSRQNKTNKNSASSCDQEHQSALEEAKQPKNDNVVIPECAHGGLYKPVQCHPSTGYCWCVLVDTGRPIPGTSTRYEQPKCDNTARAHPAKARDLYKNRPLQGCPGAKKHEFLTSVLDALSTDMVHAVSDPSSSSGRLSEPDPSHTLEERVVHWYFKLLDKNSSGDIGKKEIKPFKRFLRKKSKPKKCVKKFVEYCDMNNDKSITVQELMGCLGVTREEGKANTRKRHTPRGNAESSSSNRQPRKQG | – | significantly enhanced | significantly induced | significantly increased | – | – | – | – | – |
| lumican: SLRP family secreted proteoglycan stably expressed in MB114 cells by retroviral transduction (protein, UniProt P51885 19-338, looked up) Lumican: QYYDYDIPLFMYGQISPNCAPECNCPHSYPTAMYCDDLKLKSVPMVPPGIKYLYLRNNQIDHIDEKAFENVTDLQWLILDHNLLENSKIKGKVFSKLKQLKKLHINYNNLTESVGPLPKSLQDLQLTNNKISKLGSFDGLVNLTFIYLQHNQLKEDAVSASLKGLKSLEYLDLSFNQMSKLPAGLPTSLLTLYLDNNKISNIPDEYFKRFTGLQYLRLSHNELADSGVPGNSFNISSLLELDLSYNKLKSIPTVNENLENYYLEVNELEKFDVKSFCKILGPLSYSKIKHLRLDGNPLTQSSLPPDMYECLRVANEITVN | – | – | – | significantly decreased | inhibit | significantly inhibited | antagonizes | decreases | decreases |
